In publication PMC5772613, “Phosphorylation induced cochaperone unfolding promotes kinase recruitment and client class-specific Hsp90 phosphorylation” (Nature Communications, 2018):

B1: Full-length human Cdc37 [human] / Catalytic domain of bRaf [not stated] (parent complex)
chain 1: MVDYSVWDHIEVSDDEDETHPNIDTASLFRWRHQARVERMEQFQKEKEELDRGCRECKRKVAECQRKLKELEVAEGGKAELERLQAEAQQLRKEERSWEQKLEEMRKKEKSMPWNVDTLSKDGFSKSMVNTKPEKTEEDSEEVREQKHKTFVEKYEKQIKHFGMLRRWDDSQKYLSDNVHLVCEETANYLVIWCIDLEVEEKCALMEQVAHQTIVMQFILELAKSLKVDPRACFRQFFTKIKTADRQYMEGFNDELEAFKERVRGRAKLRIEKAMKEYEEEERKKRLGPGGLDPVEVYESLPEELQKCFDVKDVQMLQDAISKMDPTDAKYHMQRCIDSGLWVPNSKASEAKEGEEAGPGDPLLEAVPKTGDEKDVSV
chain 2: ITVGQRIGSGSFGTVYKGKWHGDVAVKMLNVTAPTPQQLQAFKNEVGVLRKTRHVNILLFMGYSTKPQLAIVTQWCEGSSLYHHLHIIETKFEMIKLIDIARQTAQGMDYLHAKSIIHRDLKSNNIFLHEDLTVKIGDFGLATVKSRWSGSHQFEQLSGSILWMAPEVIRMQDKNPYSFQSDVYAFGIVLYELMTGQLPYSNINNRDQIIFMVGRGYLSPDLSKVRSNCPKAMKRLMAECLKKKRDERPLFPQILASIELL

Variants of: B1
Assay: ITC; read off a plot

| Variant | Kd [µM] |
| --- | --- |
| chain 1 MVDESVWDHIEVSDDEDETHPNIDTASLFRWRHQARVERMEQFQKEKEELDRGCRECKRKVAECQRKLKELEVAEGGKAELERLQAEAQQLRKEERSWEQKLEEMRKKEKSMPWNVDTLSKDGFSKSMVNTKPEKTEEDSEEVREQKHKTFVEKYEKQIKHFGMLRRWDDSQKYLSDNVHLVCEETANYLVIWCIDLEVEEKCALMEQVAHQTIVMQFILELAKSLKVDPRACFRQFFTKIKTADRQYMEGFNDELEAFKERVRGRAKLRIEKAMKEYEEEERKKRLGPGGLDPVEVEESLPEELQKCFDVKDVQMLQDAISKMDPTDAKYHMQRCIDSGLWVPNSKASEAKEGEEAGPGDPLLEAVPKTGDEKDVSV [chain 1 Y4E, chain 1 Y298E] | ~2.1 |
| chain 1 MVDESVWDHIEVSDDEDETHPNIDTASLFRWRHQARVERMEQFQKEKEELDRGCRECKRKVAECQRKLKELEVAEGGKAELERLQAEAQQLRKEERSWEQKLEEMRKKEKSMPWNVDTLSKDGFSKSMVNTKPEKTEEDSEEVREQKHKTFVEKYEKQIKHFGMLRRWDDSQKYLSDNVHLVCEETANYLVIWCIDLEVEEKCALMEQVAHQTIVMQFILELAKSLKVDPRACFRQFFTKIKTADRQYMEGFNDELEAFKERVRGRAKLRIEKAMKEYEEEERKKRLGPGGLDPVEVYESLPEELQKCFDVKDVQMLQDAISKMDPTDAKYHMQRCIDSGLWVPNSKASEAKEGEEAGPGDPLLEAVPKTGDEKDVSV [chain 1 Y4E] | ~1 |
| chain 1 MVDYSVWDHIEVSDDEDETHPNIDTASLFRWRHQARVERMEQFQKEKEELDRGCRECKRKVAECQRKLKELEVAEGGKAELERLQAEAQQLRKEERSWEQKLEEMRKKEKSMPWNVDTLSKDGFSKSMVNTKPEKTEEDSEEVREQKHKTFVEKYEKQIKHFGMLRRWDDSQKYLSDNVHLVCEETANYLVIWCIDLEVEEKCALMEQVAHQTIVMQFILELAKSLKVDPRACFRQFFTKIKTADRQYMEGFNDELEAFKERVRGRAKLRIEKAMKEYEEEERKKRLGPGGLDPVEVEESLPEELQKCFDVKDVQMLQDAISKMDPTDAKYHMQRCIDSGLWVPNSKASEAKEGEEAGPGDPLLEAVPKTGDEKDVSV [chain 1 Y298E] | ~1.9 |
